This assay deals with T1, peptide 21 (PfCSP residues 101-115), biotinylated (Plasmodium falciparum 3D7, UniProt Q7K740, also: biotin, position not given here).
T1 construct: Biotinylated probe used in AlphaLISA and BLI; also called Pep21; P21
T1 chain: NPDPNANPNVDPNAN
Nature of the assay: BLI; Octet Red384; biotinylated Pep21 immobilised on streptavidin biosensors; Fab serially diluted from 1000 to 62.5 nM; 30°C; PBS + 1% BSA; global fit, 1:1 Langmuir model. As to conditions: both partners purified.

No end group written: not given here.

B1: P3-43 Fab (m43.151 variant P100KH) (Fab, V domains shown)
VH: QVHLVQSGAEVKKPGASVKVSCKASGYTFTSYAIHWVRQAPGQRLEWMGWIKGGNGNTRYSQKFQDRVTITRDTSASTAYMELSSLRSEDTAVYYCALLTVITKDDAFDIWGQGTMVTVSS
VL: not shown
notes: as the heavy chain of m5 (m43.151) with the stated change; as the light chain of m5 (m43.151), no change stated; Best m43.151-based variant; source: Fab produced from the antibody
As for B1, the dissociation constant Kd was determined as 8.9 ± 0.5 nM.

(Values after doi:10.1101/2022.04.08.487687, “In Silico Improvement of Highly Protective Anti-Malarial Antibodies” (bioRxiv, 2022).)
